Assay in all cases: fluorescence fluctuation spectroscopy
The target of test [1] is AF568-labelled HIV-1 capsid particles co-assembled from CA [change] and CA [change]-AF568 (HIV-1).
For test [2], the target named is HIV-1 capsid particles self-assembled from CA [change] (disulfide cross-linked cones and tubes) (HIV-1).
For test [3], the target named is Full-length GFP-CPSF6 (isoform 2; cell-free expressed, N-terminal GFP tag).

“And” between values parts separate entries of the source, which are not always exact repeats. Equal entries are not always repeated.

Chain of Full-length GFP-CPSF6 (isoform 2; cell-free expressed, N-terminal GFP tag) (Q16630 whole entry, canonical isoform): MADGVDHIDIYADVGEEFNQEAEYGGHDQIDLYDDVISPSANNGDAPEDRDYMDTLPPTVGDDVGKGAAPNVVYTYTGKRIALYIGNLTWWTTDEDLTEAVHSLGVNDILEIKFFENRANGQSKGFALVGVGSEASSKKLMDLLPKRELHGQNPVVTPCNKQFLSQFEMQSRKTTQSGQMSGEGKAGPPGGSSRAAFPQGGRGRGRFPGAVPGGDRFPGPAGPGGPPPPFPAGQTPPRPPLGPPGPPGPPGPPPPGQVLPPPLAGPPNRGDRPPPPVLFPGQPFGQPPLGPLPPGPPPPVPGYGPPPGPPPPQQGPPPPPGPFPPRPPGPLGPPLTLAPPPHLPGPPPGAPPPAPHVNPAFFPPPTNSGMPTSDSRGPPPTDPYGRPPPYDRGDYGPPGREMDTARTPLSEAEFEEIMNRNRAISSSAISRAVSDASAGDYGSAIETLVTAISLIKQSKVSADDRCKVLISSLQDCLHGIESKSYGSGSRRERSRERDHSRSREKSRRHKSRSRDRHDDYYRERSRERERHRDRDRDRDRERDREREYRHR

The Kd is the free concentration of one partner at which half of the binding sites on the other are occupied at equilibrium, for simple one-to-one binding. A low value points to tighter binding. In the case of “Untagged recombinant CypA labelled with Alexa Fluor 488-C5 maleimide (from UniProt P62937 1-165) (natural protein)”, in test [1], the dissociation constant Kd amounted to 16.5 µM and the analyte:CA intensity ratio relative to CPSF6-AF488 amounted to 5 fold.

With “Full-length GFP-CPSF6 (isoform 2; cell-free expressed, N-terminal GFP tag) (natural protein)”, the fold increase in the brightness parameter in the presence of capsid in test [2] is 10 fold. Besides, the fold increase in the brightness parameter compared to monomeric GFP in test [3] was 4 fold and 8 fold.
